Data: paper PMC13397619

B1: NLV3 TCR beta chain (CDR3β only) (parent)
chain: ASSPTGGSPSPLH
partner: NLCPMVATV

Variants of: B1
Test: T-Switch: Jurkat TCRβ−/− cells expressing a CDR3 saturation-mutagenesis library, stained with two peptide-HLA-A*02:01 tetramers (original and novel peptide) plus anti-CD3, FACS-sorted into four gates, gDNA sequenced
Conditions: with HLA-A*02:01 with peptide … (NLV 2-1, the novel peptide), tetramers 1 µg/mL, 30 min on ice, SP, DP and SW gates expanded about 10 days between rounds ('two to three rounds of selection' in the Methods), gate SW: higher = more of the variant in the gate that binds the novel peptide and not the original one = switched binding. Fold enrichment of the CDR3 variant in one FACS gate of a two-tetramer stain, unresolved parent, parent is a CDR3 fragment, scale: fold enrichment, numbering: sequential-on-construct, sequence starts at 1

Row | Variant | enrichment
1 | […] (CDR3 as printed); A1N derived by comparing it with the table's wild-type CDR3 ASSPTGGSPSPLH | 0
2 | […] (CDR3 as printed); G7W derived by comparing it with the table's wild-type CDR3 ASSPTGGSPSPLH | 0
3 | […] (CDR3 as printed); L12N derived by comparing it with the table's wild-type CDR3 ASSPTGGSPSPLH | 0
4 | […] (CDR3 as printed); P11L derived by comparing it with the table's wild-type CDR3 ASSPTGGSPSPLH | 0
5 | […] (CDR3 as printed); P4L derived by comparing it with the table's wild-type CDR3 ASSPTGGSPSPLH | 0
6 | […] (CDR3 as printed); P11T derived by comparing it with the table's wild-type CDR3 ASSPTGGSPSPLH | 0
7 | […] (CDR3 as printed); P4C derived by comparing it with the table's wild-type CDR3 ASSPTGGSPSPLH | 0
8 | […] (CDR3 as printed); G6L derived by comparing it with the table's wild-type CDR3 ASSPTGGSPSPLH | 0
9 | […] (CDR3 as printed); G7I derived by comparing it with the table's wild-type CDR3 ASSPTGGSPSPLH | 0
10 | […] (CDR3 as printed); L12Y derived by comparing it with the table's wild-type CDR3 ASSPTGGSPSPLH | 0
11 | […] (CDR3 as printed); P4Q derived by comparing it with the table's wild-type CDR3 ASSPTGGSPSPLH | 0
12 | […] (CDR3 as printed); L12A derived by comparing it with the table's wild-type CDR3 ASSPTGGSPSPLH | 0
13 | […] (CDR3 as printed); L12M derived by comparing it with the table's wild-type CDR3 ASSPTGGSPSPLH | 0
14 | […] (CDR3 as printed); P11A derived by comparing it with the table's wild-type CDR3 ASSPTGGSPSPLH | 0
15 | […] (CDR3 as printed); H13Y derived by comparing it with the table's wild-type CDR3 ASSPTGGSPSPLH | 0
16 | […] (CDR3 as printed); G7V derived by comparing it with the table's wild-type CDR3 ASSPTGGSPSPLH | 0
17 | […] (CDR3 as printed); A1R derived by comparing it with the table's wild-type CDR3 ASSPTGGSPSPLH | 0
18 | […] (CDR3 as printed); P4A derived by comparing it with the table's wild-type CDR3 ASSPTGGSPSPLH | 0
19 | […] (CDR3 as printed); A1D derived by comparing it with the table's wild-type CDR3 ASSPTGGSPSPLH | 0
20 | […] (CDR3 as printed); L12D derived by comparing it with the table's wild-type CDR3 ASSPTGGSPSPLH | 0
21 | […] (CDR3 as printed); L12S derived by comparing it with the table's wild-type CDR3 ASSPTGGSPSPLH | 0
22 | […] (CDR3 as printed); A1S derived by comparing it with the table's wild-type CDR3 ASSPTGGSPSPLH | 0
23 | […] (CDR3 as printed); G7R derived by comparing it with the table's wild-type CDR3 ASSPTGGSPSPLH | 0
24 | […] (CDR3 as printed); P4R derived by comparing it with the table's wild-type CDR3 ASSPTGGSPSPLH | 0
25 | […] (CDR3 as printed); G6N derived by comparing it with the table's wild-type CDR3 ASSPTGGSPSPLH | 0

Row | Variant | enrichment
26 | […] (CDR3 as printed); L12G derived by comparing it with the table's wild-type CDR3 ASSPTGGSPSPLH | 0
27 | […] (CDR3 as printed); P9G derived by comparing it with the table's wild-type CDR3 ASSPTGGSPSPLH | 0
28 | […] (CDR3 as printed); L12V derived by comparing it with the table's wild-type CDR3 ASSPTGGSPSPLH | 0
29 | […] (CDR3 as printed); A1L derived by comparing it with the table's wild-type CDR3 ASSPTGGSPSPLH | 0
30 | […] (CDR3 as printed); G6V derived by comparing it with the table's wild-type CDR3 ASSPTGGSPSPLH | 0
31 | […] (CDR3 as printed); S2K derived by comparing it with the table's wild-type CDR3 ASSPTGGSPSPLH | 0
32 | […] (CDR3 as printed); G7A derived by comparing it with the table's wild-type CDR3 ASSPTGGSPSPLH | 0
33 | […] (CDR3 as printed); L12I derived by comparing it with the table's wild-type CDR3 ASSPTGGSPSPLH | 0
34 | […] (CDR3 as printed); P11C derived by comparing it with the table's wild-type CDR3 ASSPTGGSPSPLH | 0
35 | […] (CDR3 as printed); G7N derived by comparing it with the table's wild-type CDR3 ASSPTGGSPSPLH | 0
36 | […] (CDR3 as printed); G7M derived by comparing it with the table's wild-type CDR3 ASSPTGGSPSPLH | 0
37 | […] (CDR3 as printed); A1Q derived by comparing it with the table's wild-type CDR3 ASSPTGGSPSPLH | 0
38 | […] (CDR3 as printed); L12F derived by comparing it with the table's wild-type CDR3 ASSPTGGSPSPLH | 0
39 | […] (CDR3 as printed); P4M derived by comparing it with the table's wild-type CDR3 ASSPTGGSPSPLH | 0
40 | […] (CDR3 as printed); P9N derived by comparing it with the table's wild-type CDR3 ASSPTGGSPSPLH | 0
41 | […] (CDR3 as printed); A1Y derived by comparing it with the table's wild-type CDR3 ASSPTGGSPSPLH | 0
42 | […] (CDR3 as printed); G6W derived by comparing it with the table's wild-type CDR3 ASSPTGGSPSPLH | 0
43 | […] (CDR3 as printed); P11N derived by comparing it with the table's wild-type CDR3 ASSPTGGSPSPLH | 0
44 | […] (CDR3 as printed); P11W derived by comparing it with the table's wild-type CDR3 ASSPTGGSPSPLH | 0
45 | […] (CDR3 as printed); P9V derived by comparing it with the table's wild-type CDR3 ASSPTGGSPSPLH | 0
46 | […] (CDR3 as printed); A1I derived by comparing it with the table's wild-type CDR3 ASSPTGGSPSPLH | 0
47 | […] (CDR3 as printed); G6T derived by comparing it with the table's wild-type CDR3 ASSPTGGSPSPLH | 0
48 | […] (CDR3 as printed); G6M derived by comparing it with the table's wild-type CDR3 ASSPTGGSPSPLH | 0
49 | […] (CDR3 as printed); P11M derived by comparing it with the table's wild-type CDR3 ASSPTGGSPSPLH | 0
50 | […] (CDR3 as printed); P4S derived by comparing it with the table's wild-type CDR3 ASSPTGGSPSPLH | 0
